Changes are numbered by the printed parent chain.
B1: MS-R 3.6.H5 x 3.6.L2 IgG1 (antibody, V domains shown)
VH: QLVESGGGLVQPGGSLRLSCAASGFTFSSYAMSWVRQAPGKGLEWVSAISESGKTKYYADSVKGRFTISRDNSKNTLYLQMNSLRAEDTAVYYCARLTHYARYYRYFDVWGQGTLVTVSS
VL: DIVLTQSPATLSLSPGERATLSCRASQFLSRYYLAWYQQKPGQAPRLLIYGASSRATGVPARFSGSGSGTDFTLTISSLEPEDFAVYYCQQTYNYPPTFGQGTKVEIKR
B2: MS-R 7.11.H1 x 7.11.L1 IgG1 (antibody, V domains shown)
VH: QLVESGGGLVQPGGSLRLSCAASGFTFSSYAMSWVRQAPGKGLEWVSGINAAGFRTYYADSVKGRFTISRDNSKNTLYLQMNSLRAEDTAVYYCARGKGNTHKPYGYVRYFDVWGQGTLVTVSS
VL: B1 VL with F28R, L29I, S30L, Y32I, V86T, T92V, N94S, Y95P, P97H
B3: MS-R 3.6.H8 x 3.6.L2 IgG1 (antibody, V domains shown)
VH: B1 VH with S52Y, G53S, T55F
VL: B1 VL
B4: MS-R 7.4.H2 x 7.2.L1 IgG1 (antibody, V domains shown)
VH: B2 VH with G48A, A51Y, A52N, F54A, T56I
VL: B1 VL with F28Y, L29V, S30D, Y32T, V86T, T92I, N94S, Y95F, P97H
B5: MS-R 7.9.H2 IgG1 (antibody, V domains shown)
VH: B2 VH with G48A, A52D, F54N, T56K
VL: B1 VL with F28S, L29V, R31S, Y32S, V86T, Q90L, T92I, Y95M, P97I
B6: MS-R 7.9.H7 IgG1 (antibody, V domains shown)
VH: QVELVESGGGLVQPGGSLRLSCAASGFTFSSYAMSWVRQAPGKGLEWVSAINASGTRTYYADSVKGRFTISRDNSKNTLYLQMNSLRAEDTAVYYCARGKGNTHKPYGYVRYFDVWGQGTLVTVSS
VL: B1 VL with F28S, L29V, R31S, Y32S, V86T, Q90L, T92I, Y95M, P97I

Assays:
[1] = molecular target: Aβ1-40 fibers (human); experiment: SPR
[2] = molecular target: Aβ1-42 fibers (human); experiment: SPR
[3] = molecular target: Aβ1-40 fibers (human); experiment: SPR; remark: listed apart in the source
[4] = molecular target: Aβ1-42 fibers (human); experiment: SPR; remark: listed apart in the source
[5] = molecular target: Aβ1-42 fibers (human); experiment: SPR, bivalent
[6] = molecular target: Aβ1-40 fibers (human); experiment: SPR, bivalent
[7] = molecular target: Aβ1-40 fibers (human); experiment: SPR, monovalent
[8] = molecular target: Aβ1-42 fibers (human); experiment: SPR, monovalent

| Binder | Kd [1] [nM] | Kd [2] [nM] | Kd [3] [nM] | Kd [4] [nM] | Kd [5] [nM] | Kd [6] [nM] | Kd [7] [nM] | Kd [8] [nM] |
| --- | --- | --- | --- | --- | --- | --- | --- | --- |
| B1 | 1.03 | 0.2 | 0.2 | 0.95 | – | – | – | – |
| B2 | 0.7 | 0.13 | 0.11 | 0.7 | – | – | – | – |
| B3 | – | – | – | – | 0.22 | 0.22 | 0.95 | 0.82 |
| B4 | 0.63 | 0.12 | 0.12 | 0.56 | – | – | – | – |
| B5 | 0.42 | 0.11 | 0.12 | 0.38 | – | – | – | – |
| B6 | 0.69 | 0.24 | 0.25 | 0.7 | – | – | – | – |

Source: US7794719 (dated 2010)
